Experimental data taken from the DeepSol protein solubility set.

Assay: soluble on expression in E. coli; label from the status in PepcDB or PDB records

Soluble on expression in E. coli, soluble:
MRLPDAGFRRYIVVAGRRNVGKSSFMNALVGQNVSIVSEYAGTTTDPVYKSMELYPVGPVTLVDTPGLDDVGELGRLRVEKARRVFYRADCGILVTDSEPTPYEDDVVNLFKEMEIPFVVVVNKIDVLGEKAEELKGLYESRYEAKVLLVSALQKKGFDDIGKTISEILPGDEEIPYLGDLIDGGDLVILVVPIDLGAPKGRLIMPQVHAIREALDREAIALVVKERELRYVMENIGMKPKLVITDSQVVMKVASDVPEDVELTTFSIVESRYRGDLAYFVESVRKIEELEDGDTVVIMEGCTHRPLTEDIGRVKIPRWLVNHTGAQLNFKVIAGKDFPDLEEIEGAKLIIHCGGCVLNRAAMMRRVRMAKRLGIPMTNYGVTISYLHGVLDRAIRPFREEVKVLEHHHHHH
MRLTSKGRYAVTAMLDVALNSEAGPVPLADISERQGISLSYLEQLFSRLRKNGLVSSVRGPGGGYLLGKDASSIAVGEVISAVDESVDATRCQGKGGCQGGDKCLTHALWRDLSDRLTGFLNNITLGELVNNQEVLDVSGRQHTHDAPRTRTQDAIDVKLRA
MRNEMHLQFSARSENESFARVTVAAFVAQLDPTMDELTEIKTVVSEAVTNAIIHGYNNDPNGIVSISVIIEDGVVHLTVRDEGVGIPDIEEARQPLFTTKPELERSGMGFTIMENFMDEVIVESEVNKGTTVYLKKHIVKSKRYLEGSSF
MRNFDLSPLYRSAIGFDRLFNHLENNQSQSNGGYPPYNVELVDENHYRIAIAVAGFAESELEITAQDNLLVVKGAHADEQKERTYLYQGIAERNFERKFQLAENIHVRGANLVNGLLYIDLERVIPEAKKPRRIEINLEHHHHHH
MRNIEEDLHKNEEEDPAPEVDDTDIPVDPLLTLLYIRHTLTSPWSSSEERDTAKAAMMEEMEKHNMAPYIRLVCEALGVPLDESKLAEMDAINAKKVAAFDARLKDAVDNLGDTEVRDVLQAKCDHYARIGDLEMCMKTNEECAAKTLATGPKLDLYFQRIRLGIAFSDNDIAAKGITDAHRLMKDGDWERRNRLRVYEGIYHVFIRDFQRGSTLLLDSITTFAAGELLTFQDFVFITVVASLPVLSRPELRKRIVYSPEVNRTGVDDVRELVNSIYDCQYNKVFPNLEVVCQHLRKVVYLSPHVSYFFREMRVLIFTQFLDSYSSVTLESMGAAFGIPVPALDSMLCTLISNERIACKVDRVDGSVETYRGDTTNFDYHRIVKSGDLLLNRIQKLSRLVDM
MRSELCCCRAVKRAAPEESIEEDDSYEDSDLEEGGSSYDEGTVDSESSAEDQEDKDVPVSEKKKRKLPSDVTEGKTVFIRNLSFDSEEEALGEVLQQFGDLKYVRVVLHPDTEHSKGCAFAQFMTQEAAQKCLAAASLEAEGGGLKLDGRQLKVDLAVTRDEAAKLQTKKVKKPTGTRNLYLAREGLIRAGTKAAEGVSAADMAKRERFELLKHQELKNQNIFVSQTRLCLHNLPKAVDDKQLRKLLLEATRGEKGVRIKECRVMRDLKGVHGKMKGQSLGYAFAEFQKHEHALRALRHFNNNPEIFGSQKRPIVEFSLEDRRKLKVKELRIQRSLQKMESKPVTSKPQKEQKEVGKDKQQKAVQSATQDQSKAPGEQKGKAGSTSWTGFQTKAEVEQVELPDGKKRRKVLALPSHRGPKIRLRDKGKVKSLPSRKPKPQMGQRKQKKQQLASSVQAPKRKAKENKAEARFNQLVEQYKQKLLGPSKGAPLMKRSKWFDS
MRVASVRWFTPPTRPRPAPLFFGQERALRALEAAFLHRGHGYLVGPSGLGKRARLLAFLEGRAFPKEELVYLPLGEEAFPLLLPEGEGRALVEGVEALFAEFTPGLFREKGFLYAKNLVESRHEREAEALLQTLAQEAKAHGFALAEEEGGFTLTGQGPLPPELSAKLEETVLAYVEVRQRAQAEVAALRRSFAERLLQPRVEGLKARFPEAARYLDWLLESLLRAAALEEEVEGEALLPRLLVEGGTRVVYEPNPTPERLFGHLEYEVREGVLTTHLGLLRPGALMRAAGGVLVLEAHRVLELGSYPLLKRSLATGEIEPLAPRPEVRGPRLQPAPLKAQVFLVGPPEVIALLEEDEEFLELFPFRVEFNPEMPYTEAHVAHLGGFLEAQGVRLLPEGLAALADEARRMAGHQERLDARIYRLLDLAREAARYQDPVGREGVERALKAREDRFALEQELFLKDVEEGVVALEVTGERVGEVNGLVVLEGPLPTGRPVRITAQAGPGREGILSIDREVGLGGQVFHKAVLTLAGYLRGTYAQLGALSATVSLVFEQSYGSLEGDSAGLAELLAVLSAISGLPLRQDLAVTGAVDQTGRVLAVGRVAEKVEGFFRVCQTLGLTGTQGVVLPKANLPHLTLRREVVEAVEEGVFHLFAVEEVDEAVELLFGRRAYWVHEKVREALEHFQKLENGDGEKG
MRVEIIFLGCGGGRWATITQKKATGGFRIHTNELRMHVDPGPGAIVRLNELKISPWRTNALFISHCHPDHYTDGEIIVEAITQGMTKKRGVFLGSLSVVEGFGEYEYVVSKYHQSKLEEVRVLYPGDSAELYDTTIKATHTKHGDPFGIGFRLSTIYGDIGYTSDTEFIPQLIEDFDGVRILIANIVRKKNERIKGHLCSNDAIDLINSMNKKPELLIMNHMGVKMTNPQIEAEYISQNTGIEVIPARLGLKVELLNGKYKYQLIKLEHHHHHH

Soluble on expression in E. coli, not soluble:
MRLPTEAHLRQHVRVIDSMSCNREKVRDLRRQIPSFDCVPGCHDCCGPVTTSSEEMSRLPRKTVAEQEAAFNELNCVHLGPQGCTVYDERPLICRLFGTTASLPCPNGRRPVELIHPRAEKQIHEYMASTRQVLVLEHHHHHH
MRLSMENIMNNPVIGVVMCRNRLKGHATQTLQEKYLNAIIHAGGLPIALPHALAEPSLLEQLLPKLDGIYLPSSPSNVQPHLYGENGDEPDADPGRDLLSMAIINAALERRIPIFAICRGLQELVVATGGSLHRKLCEQPELLEHREDPELPVEQQYAPSHEVQVEEGGLLSALLPECSNFWVNSLHGQGAKVVSPRLRVEARSPDGLVEAVSVINHPFALGVQWHPEWNSSEYALSRILFEGFITAWQHHIAEKQRL
MRLTKQTNYAVRMLMYCAANEGKLSRIPEIARAYGVSELFLFKILQPLNKAGLVETVRGRNGGVRLGKPAEKISLFDVVRVTEDSFAMAECFEDGAVECPLVDSCGLNSALRKALNAFFDVLAEYSIDDLVKARPQINFLLGIDTEMPKIAALPAA
MRMMEAEIKDQRNNLQALKNSQRLSVRGSIQSNMSSRTDGILQRRLDETERKLAKTSAELKAKDEKLKKETASLEASREAHRLLQEESNKSKVSVMRLTFKLNRITHESVKEQAVLKKKLLDCETRLATYSECLVCYQKFDENTRIPRVMDCGHTLCDFCINQIVKMAGCYSATCPFDRVRIFGFGKSRRLEDRPCNRFIMK
MRNLVKYAGIGLLVMGLAACDNNDTKASAESAAAESQASGQPISLMDGKLSFSLPADMTDQSGKLGTQANNMHVYSDPTGQKAVIVIVGDNTDEALPVLANRLLEQQRSRDPQLQVVTNKSIELKGHTLQQLDSIISAKGQTAYSSIVLGKVDNQLLTIQVTLPADNQQKAQTTAENIINTLVIK
MRNPIMVTTEVAGEPPGQGRKWAAHGTMAAPRVHTDYHPGGGSACSSVKVRSHVGHTGVFFFVDQDPLAVSLTSQSLIPPLIKPGLLKAWGFLLLCAQPSANGHSLCCLLYTDLVSSHELSPFRALCLGPSDAPSACASCNCLASTYYLLEHHHHHH
MRNTKGNELEDREILASSLHANGISETVLLQIWNATEENLDKLVSALNVYKKGKISITWHEIMTVKENNEAIIPFSVAVQNIYGAFKNIDEELAELARNAIESGWVDAEPRENKPPGGFCAPFFSEKESRISMRYDGSIDSVRILAHELGHAWHFYNMSFEQSSSFLDDYLPMSTAESASIFFETLLINYLIQTTDSIDIKKSLLSWKIRNCFNYVMAIRASFEFEKNFYEKCKESPISADEIEKISIVAQEKAYGNALSEYQPFVWMKYVQFYIADVPFYNYPYTFGYLVSFSLLEIAKENKSTFHSKFKEFLRENGKAPVEELIKKHFEIDITSYAFWDKAFKQISKDIDAYLRLI
MRPTVVSMGKHFGNLGKMYGEHRFALAPNEQKAYKGFFDQAFVKTFKTYVWDQWYYYIPQTIGAYLLYDWAKKTNVAANRKNPADFANDQ
MRQKTIREISVAWKEYKQPYVKQSTMAAYVLILENHILPNFGESDTLHEQAVQDFVLRKIENGLSVKSVKDILIVLKMVMKFGVKNEWMDYQEWDIKYPSSSTTKELEVLSVANHKKILNHIQNHFSFTGLGIYISLCTGLRIGEVCALKWSDINVSEGTITVNRTIERIYIIDGTKKHTELVINTPKTQNSCREIPMTKELLAMVKPLKKVVNEDFYVLTNDEYPTEPRTYRNYYGKLM
MRRVTEAAIPDNDGDEQPPVIPRYDPTSNFDAQRAQQQHPQSRPVYSTPAQMIRTTQPGGVKHNVILMKASDGTQKMVLKPGQFPPGTVISTGQRVVPYRQPTAVQQRQLYTATPGTRVVRIPNANGGAPRQQDHQVMRRVVQASGPRAMEYMDDQGTPPPGQQVRYVLQGGNSGTPNVNPPKVSSRGGPRGGLTMQMVQQQQQHNPVLDVMFSQVCRWDRQYGWSKTHVKRARQKNDSDKMHLRKFRMNQRELLITDHMERLKKEINKRRTRMENEAEQQCGLLTPWRKARARPHRAAKPKAEVKKEVINPADITLGGDTYDYVKEQKPTESIATNVSRRRRTSANLSKSEDDRDKPESQSTAPKSKERRTSEPPASHVAFHTPGSATPHDINLSIEHCTCQKIFDASKLYIQCELCARWYHGDCVGVAEQTILGLEHWSCEECIEEQERVKDQPALYCVCQKPYDDTKFYVGCDSCQGWFHPECVGTTRAEAEQAADYNCPACTREAEGYESEASDVSGSSRVSVQLTRADYTHVFELLELLLEHRMSTPFRNPVDLNEFPDYEKFIKKPMDLSTITKKVERTEYLYLSQFVNDVNQMFENAKTYNPKGNAVFKCAETMQEVFDKKLIDVREQMTARQQMLLLATAQQQDPMSSIRKRVQSESQRTVDSLDIDSDQLLPLDANLMRLYDF
MRSFIIFSTLLVILVQCGYPVAENSYPTTPSYPTPPPSYPTPKKYPVAPTYPSTPSYSAPPAQSAYSSSDNQEDTESESVTGAASTSEYRKRAKARTAHNRQFQRRALQPIKRFQQKKQ
MRSFIISSALLVILVQCGYPVAENSYPTTPSYPTPPPSYPTPKKYPVAPTYPSPPAYAQKPSYSAPPPPAPSVYSSSSFSDNEVASDSEYTTASPNSEYRKRAKARTAHNRKFQRRALTPIRRFQQKKQ
MRVAIFTDTFTPQVNGVAKTLERLTRYFQKENIAYSVFAPQHTAEDNFVANVNKMRSIPLTILYPECRFSFPTPRIKRELLSFKPDIIHIATPFNMGLCGLYYAKKLNIPVVGSYHTDFDAYLRYYKIEFLSNMLWNYLKWFHSHMQKNFVPSPETLHQLKHKGFQALSIWGRGVDCNLFHPAYNTDLFRKKYNITAKYVLSYIGRIAPEKDIDTLQNLIVKSTHTRNDIHWLIAGDGPLATNLRETVPQTNVTFTGYLQGGDLAEAYACSNLMVFPSATETFGNVVLESLACGTPVIGANSGGVKNIITDGKTGVLCPPKNEDAFLSSIYFLLQNEEKLKQMGIAALSYAKSKSWDEIFRGLLNEYEEVLQHNASELLALEHHHHHH
